In patent publication US20060019241A1, “Na+ and CI-coupled transport system for endogenous opioid peptides” (priority 2004, published 2006):
Entries after “also recorded” stand apart in the source; their conditions may differ. Ends that are not written are not given here.

B1: tyrosine melanocyte-stimulating hormone inhibitory factor 1 (Tyr-MIF-1; Tyr-Pro-Leu-Gly-NH2) (peptide)
peptide: YPLG-NH2
B2: Dynorphin B (1-9) (Tyr-Gly-Gly-Phe-Leu-Arg-Arg-Gln-Phe) (peptide)
peptide: YGGFLRRQF

How the values were obtained:
[1] = target: Na+- and Cl--coupled transport system for endogenous opioid peptides (human cell lines ARPE-19, Tat-ARPE-19 and SK-N-SH) (human); assay: cell-based or functional assay
[2] = system: deltorphin II transport system in Tat-ARPE-19 cells; assay: Inhibition of [^3H]deltorphin II uptake in Tat-ARPE-19 cells; assay type: cell-based, human; conditions: [^3H]deltorphin II 50 nM; for competition with deltorphin for the uptake process (in words): Tat-ARPE-19 / RPE cells, compound 1 mM; for [^3H] Deltorphin II uptake / [^3H] Deltorphin II uptake (%) of control: Tat-ARPE-19 cells, 30 minutes, NaCl, inhibitor 1 mM; for [^3H] Deltorphin II uptake (%) of control: control = 100
From the text: Stable transfection of ARPE-19 cells with pcDNA-Tat cDNA. The pGEM2-Tat cDNA construct contained as the insert a 295 basepair (bp) fragment encoding the first exon of HIV-1 Tat gene joined to a 145 bp pET3A transcription terminator. The entire insert (440 bp) was removed from the construct by digestion with PstI and EcoRI and ligated into the multiple cloning region of pcDNA3.1 (−) vector at PstI/EcoRI site so that the insert is downstream of the cytomegalovirus (CMV) promoter. The resultant construct was sequenced to confirm the orientation of the insert. This construct was electroporated into ARPE-19 cells and the stably transfected cell clones were isolated in the presence of Geneticin (G418). To serve as a control, empty pcDNA3.1 vector was electroporated into ARPE-19 cells in an identical manner and the clones harboring the vector were selected by G418 resistance.
Uptake measurements in control ARPE-19 cells and Tat-ARPE-19 cells. Control ARPE-19 cells and Tat-ARPE-19 cells were maintained in 75-cm^2 culture flasks in Dulbecco's modified Eagle's medium/F12 medium (1:1, volume/volume (v/v)) in the presence of fetal bovine serum (10%) and G418 (100 μg/ml). For uptake measurements, cells were released by trypsin treatment and seeded in 24-well culture plates at an initial density of 0.1×10^6 cells/well. The culture medium was replaced with fresh medium on the second day following the initial seeding and uptake measurements were made on the third day. […] After incubation at 37° C. for a desired time, uptake was terminated by the removal of the medium and washing of the cells with ice-cold uptake buffer. The cells were then dissolved in 1% SDS in 0.2 M NaOH and used for measurement of radioactivity. The uptake buffer in most experiments was 25 mM Hepes/Tris (pH 7.5), containing 140 mM NaCl, 5.4 mM KCl, 1.8 mM CaCl2, 0.8 mM MgSO4 and 5 mM glucose.
When the influence of Na^+ on the uptake process was investigated, the concentration of NaCl in the uptake buffer was adjusted, as desired, by isoosmotically replacing NaCl with N-methyl-D-glucamine chloride. To assess the influence of Cl^− on the uptake process, the composition of the uptake medium was modified by replacing KCl and CaCl2 with equimolar concentrations of potassium gluconate and calcium gluconate and the concentration of NaCl was adjusted, as desired, by iso-osmotically replacing NaCl with sodium gluconate. Saturation kinetics were analysed by fitting the data to the Michaelis-Menten equation. The Michaelis-Menten constant, Kt, was calculated by non-linear regression analysis and then confirmed by linear regression. Na^+- and Cl^−-activation kinetics were analyzed by fitting the data to the Hill equation and the Hill coefficients for Na^+ and Cl^− (h; the number of Na^+ and Cl^− ions involved in the activation process) and the K0.5 values (the concentration of Na^+ and Cl^−-needed for half-maximal activation) were determined from the analysis. Again, these constants were first calculated by non-linear regression methods and subsequently confirmed by linear regression methods. Experiments were repeated three times in duplicate and the results are given as means±S.E.M.
Substrate specificity of the deltorphin transport system. […] These peptides consisted of 4-13 amino acids.
Relative affinities of endogenous opioid peptides for the transport system.

Molecule | [3H]deltorphin II (50 nM) uptake in Tat-ARPE-19 cells, 30 min, NaCl, inhibitor 1 mM (pmol/mg protein/30 min) [1] | [3H]deltorphin II uptake (%) in Tat-ARPE-19 cells, inhibitor 1 mM [1] | IC50 for inhibition of [3H]deltorphin II uptake in Tat-ARPE-19 cells [1] | [3H]deltorphin II (50 nM) uptake in control ARPE-19 cells, 30 min, NaCl, opioid peptide 1 mM (pmol/mg protein/30 min) [1] | [3H]deltorphin II uptake (%) in control ARPE-19 cells, opioid peptide 1 mM [1] | competition with deltorphin for the uptake process (in words) [2] | [^3H] Deltorphin II uptake [2] | [^3H] Deltorphin II uptake (%) of control [2] | affinity from concentration-dependent inhibition of [3H]deltorphin II (25 nM) uptake in SK-N-SH cells [1]
Gly-Gly-Gly (peptide) | 9.68 | 125 % of control | – | – | – | – | – | – | –
[Arg6, Phe7]Met-enkephalin (Tyr-Gly-Gly-Phe-Met-Arg-Phe) (peptide) | 0.11 | 1 % of control | 9.1 mM | 0.05 | 4 % of control | – | – | – | –
Tyr-Pro-Leu-Gly-NH2 (YPLG-NH2) [Tyr-MIF-1] | – | – | – | – | – | no or little inhibition; also recorded: not recognized | 9.20 ± 0.15 pmol/mg protein/30 min | 119% | –
β-Casomorphin (Tyr-Pro-Phe-Pro-Gly-Pro-Ile) (peptide) | 2.03 | 26 % of control | – | – | – | – | – | – | –
Met-enkephalin (Tyr-Gly-Gly-Phe-Met) (peptide) | 0.5 | 6 % of control | 33.2 mM | 0.06 | 5 % of control | – | – | – | 10.7 µM
Tyr-Pro | – | – | – | – | – | did not compete | 5.72 ± 0.09 pmol/mg protein/30 min | 74% | –
Leu-enkephalin (Tyr-Gly-Gly-Phe-Leu) (peptide) | 0.15 | 2 % of control | 9.5 mM | – | – | – | – | – | 7.8 µM
NCCC(=O)N[C@@H](Cc1cnc[nH]1)C(=O)O [Carnosine, β-Ala-His] | – | – | – | – | – | did not compete | 6.21 ± 0.08 pmol/mg protein/30 min | 80% | –
YGGFMK [α-Neo-endorphin (1-6)] | – | – | – | – | – | marked inhibition | 0.19 ± 0.01 pmol/mg protein/30 min | 3% | –
Met-enkephalinamide (Tyr-Gly-Gly-Phe-Met-NH2) (peptide) | 0.69 | 9 % of control | 13 mM | – | – | – | – | – | –
Dynorphin A (1-6) (Tyr-Gly-Gly-Phe-Leu-Arg) (peptide) | 0.12 | 2 % of control | 4.2 mM | 0.06 | 5 % of control | – | – | – | 3.5 µM
O=C(O)[C@@H]1CCCN1 [L-Proline] | – | – | – | – | – | did not compete | 7.31 ± 0.20 pmol/mg protein/30 min | 94% | –
B1 | 9.2 | 119 % of control | – | – | – | – | – | – | –
B2 | 0.08 | 1 % of control | 3.1 mM | 0.06 | 5 % of control | – | – | – | –
